Earlier results in paper PMC4492699.

Target: HER2 (Homo sapiens) (UniProt P04626)

## trastuzumab
  Kd: 100 pM
